Results reported in the supplement of paper PMC10567573.

B1: DYRK1B (parent)
chain: KKVLNHGYDDDNHDYIVRSGERWL
B2: ETS1 (parent)
chain: FSEPSFITESYQTLHPISSEELLS

Variants of: B1
Test: protein stability index of a GFP-peptide fusion (GPS, HEK-293T) (PSI 1-6); higher = more stable
Details: c terminus: a fixed tail appended
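Further: lentivirally expressed fusions sorted by FACS into six bins by GFP to DsRed ratio, PSI derived from sequencing read proportions per bin multiplied by bin number.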

Variant | protein stability index
V3K | 3.08
V3G | 3.33
V3M | 3.04
V3L | 2.88
V3F | 2.61
V3Y | 2.73
V3H | 3.12
V3Q | 3.08
V3P | 2.94
V3I | 2.73
V3C | 2.41
V3A | 3.45
V3S | 3.47
V3N | 3.15
V3W | 2.05
V3T | 3
V3R | 2.83
V3D | 3.74
V3E | 3.48
D11I | 2.5
D11E | 3.18
D11L | 2.25
D11G | 2.85
D11A | 3.09
D11H | 3.08

Variant | protein stability index
D11F | 2.15
D11K | 2.92
D11C | 2.55
L4F | 2.59
L4V | 2.58
L4I | 3.33
L4G | 3.87
L4W | 3.1
L4E | 3.56
L4T | 3.86
L4Y | 2.99
L4N | 3.76
L4P | 3.36
L4M | 2.88
L4K | 3.68
L4D | 4.28
L4C | 3.33
L4S | 3.27
L4R | 3.38
L4H | 3.27
L4Q | 4.12
L4A | 3.68
K1I | 2.28
K1N | 2.95
K1Q | 2.74

Variant | protein stability index
K1D | 3.62
K1M | 3.09
K1G | 3.5
K1R | 2.43
K1L | 2.48
K1F | 2.41
K1H | 3.39
K1Y | 2.38
K1T | 2.92
K1P | 3.43
K1V | 2.29
K1E | 3.24
K1S | 3.23
K1C | 2.38
K1A | 3.11
K1W | 2.07
D10S | 2.72
D10E | 2.95
D10F | 1.83
D10Q | 2.99
D10G | 3.46
D10P | 2.81
D10C | 2.52
D10W | 2.04
D10M | 2.96

Variant | protein stability index
D10V | 2.44
D10K | 3.16
D10N | 2.48
D10I | 2.3
D10T | 3
D10L | 2.43
D10Y | 3.06
D10R | 2.82
D10A | 3.02
D10H | 2.75
D9Y | 2.17
D9S | 2.34
D9H | 2.74
D9K | 2.87
D9A | 2.89
D9E | 3.96
D9T | 2.75
D9Q | 2.94
D9W | 1.53
D9F | 2.61
D9V | 2.67
D9N | 2.63
D9M | 2.83
D9L | 2.39
D9C | 2.96

Variant | protein stability index
D9I | 2.52
D9R | 2.74
D9P | 3.12
D9G | 2.51
N5S | 2.67
N5L | 3.01
N5E | 3.46
N5V | 3.22
N5C | 2.84
N5H | 2.89
N5G | 3.42
N5M | 2.8
N5I | 2.82
N5A | 2.88
N5D | 3.41
N5F | 2.7
N5T | 2.57
N5R | 2.92
N5Y | 2.33
N5K | 2.97
N5Q | 3.01
N5P | 3.39
N5W | 2.72
K2I | 2.23
K2L | 2.12

Variant | protein stability index
K2W | 2.12
K2C | 1.9
K2E | 3.7
K2S | 2.97
K2A | 3.33
K2Y | 2.52
K2T | 3.53
K2D | 4.31
K2F | 2.52
K2G | 3.6
K2H | 3.19
K2R | 3.13
K2P | 3.46
K2M | 2.86
K2Q | 3.32
K2V | 2.86
K2N | 3.79
H6K | 3.52
H6N | 3.38
H6T | 3.12
H6E | 3.44
H6I | 3.01
H6G | 3.26
H6M | 2.34
H6P | 3.27

Variant | protein stability index
H6D | 3.48
H6A | 2.81
H6S | 3.22
H6L | 2.51
H6V | 2.84
H6Y | 3.12
H6W | 2.01
H6R | 2.91
H6C | 2.38
H6F | 2.4
H6Q | 3.32
G7F | 2.4
G7K | 3.3
G7D | 3.4
G7N | 3.23
G7S | 3.21
G7P | 3.15
G7I | 2.22
G7C | 2.27
G7A | 3.47
G7E | 3.64
G7L | 2.24
G7M | 3.07
G7Q | 3.12
G7V | 2.77

Variant | protein stability index
G7Y | 2.93
G7H | 2.84
G7R | 3.31
G7T | 3.53
G7W | 2.74
Y8I | 3.27
Y8Q | 3.77
Y8W | 2.74
Y8R | 4.28
Y8F | 3.46
Y8N | 4.15
Y8G | 3.56
Y8D | 3.87
Y8T | 3.74
Y8L | 3.36
Y8E | 3.71
Y8V | 3.58
Y8A | 3.82
Y8P | 3.24
Y8H | 4.27
Y8S | 3.66
Y8K | 3.58
Y8M | 3.48
Y8C | 3.24

Variants of: B2
Test: as above
Details: c terminus: a fixed tail appended

Variant | protein stability index
L22Y | 2.04
L22P | 2.42
L22H | 2.71
L22F | 2.01
L22K | 2.55
L22C | 1.97
L22G | 2.03
L22M | 2
L22A | 2.04
L22S | 2
L22W | 1.62
L22Q | 2.19
L22N | 2.33
L22R | 2.19
L22T | 1.97
L22E | 2.67
L22I | 2.2
L22V | 2.31
L22D | 2.16
E20W | 1.61
E20G | 1.62
E20F | 1.77
E20K | 1.82

Variant | protein stability index
E20T | 2.08
E20D | 1.63
E20I | 1.78
E20R | 2.08
E20Q | 2.12
E20A | 1.92
E20N | 1.7
E20V | 2.04
E20H | 2.14
E20C | 1.8
E20M | 2.28
E20L | 1.95
E20Y | 1.72
E20P | 1.73
E20S | 2.11
S18N | 2.04
S18D | 2.33
S18M | 2
S18P | 2.08
S18G | 1.8
S18E | 2.18
S18R | 2.19
S18T | 1.97

Variant | protein stability index
S18V | 2.13
S18C | 2.2
S18L | 1.99
S18A | 1.93
S18Y | 2.24
S18W | 1.38
S18Q | 2.3
S18I | 1.83
S18K | 1.49
S18H | 2.35
S18F | 1.79
L23W | 1.81
L23T | 2.29
L23V | 2.06
L23A | 2.57
L23D | 2.47
L23Q | 2.59
L23P | 2.14
L23S | 2.07
L23N | 2.31
L23I | 1.52
L23H | 2.61
L23M | 2.03

Variant | protein stability index
L23E | 2.44
L23K | 2.83
L23Y | 1.78
L23F | 2.38
L23C | 1.97
L23R | 2.16
L23G | 1.98
E21K | 1.84
E21C | 1.79
E21G | 1.91
E21H | 2.24
E21T | 2
E21N | 1.85
E21F | 1.99
E21W | 1.99
E21S | 1.52
E21D | 1.74
E21P | 1.94
E21R | 1.96
E21M | 2.1
E21Y | 1.49
E21L | 1.93
E21I | 1.81

Variant | protein stability index
E21Q | 2.06
E21V | 2.2
E21A | 1.53
S24Y | 1.79
S24M | 1.97
S24L | 1.69
S24C | 1.5
S24D | 2.15
S24F | 1.65
S24W | 1.56
S24R | 1.86
S24K | 2.49
S24I | 1.85
S24N | 1.79
S24A | 2.02
S24V | 1.62
S24G | 1.86
S24T | 1.99
S24P | 2.04
S24H | 1.91
S24Q | 2.16
S24E | 2.54
S19R | 2.24

Variant | protein stability index
S19K | 1.72
S19L | 1.81
S19Q | 2.21
S19Y | 1.7
S19P | 2.11
S19C | 1.78
S19E | 2.46
S19W | 2
S19T | 2.21
S19N | 2.35
S19G | 1.99
S19I | 2.13
S19H | 1.94
S19V | 1.84
S19A | 1.7
S19D | 2.31
S19M | 2.19
S19F | 1.88
I17W | 2.06
I17Y | 2.03
